Experimental findings from US20100184697A1 (U S OF AMERICA AS REPRESENTED BY THE SECRETAR, published 2010) are described below.

Square brackets hold non-standard residues; d marks the D form. Ends that are not written are not given here. Nle = CCCC[C@H](N)C(=O)O; Dab = NCC[C@H](N)C(=O)O

In this experiment the target is STAT3 (human, UniProt P40763 2-770, limits assumed). As to the kind of experiment: cell-based or functional assay.
Sequence of STAT3 (P40763 2-770 limits assumed): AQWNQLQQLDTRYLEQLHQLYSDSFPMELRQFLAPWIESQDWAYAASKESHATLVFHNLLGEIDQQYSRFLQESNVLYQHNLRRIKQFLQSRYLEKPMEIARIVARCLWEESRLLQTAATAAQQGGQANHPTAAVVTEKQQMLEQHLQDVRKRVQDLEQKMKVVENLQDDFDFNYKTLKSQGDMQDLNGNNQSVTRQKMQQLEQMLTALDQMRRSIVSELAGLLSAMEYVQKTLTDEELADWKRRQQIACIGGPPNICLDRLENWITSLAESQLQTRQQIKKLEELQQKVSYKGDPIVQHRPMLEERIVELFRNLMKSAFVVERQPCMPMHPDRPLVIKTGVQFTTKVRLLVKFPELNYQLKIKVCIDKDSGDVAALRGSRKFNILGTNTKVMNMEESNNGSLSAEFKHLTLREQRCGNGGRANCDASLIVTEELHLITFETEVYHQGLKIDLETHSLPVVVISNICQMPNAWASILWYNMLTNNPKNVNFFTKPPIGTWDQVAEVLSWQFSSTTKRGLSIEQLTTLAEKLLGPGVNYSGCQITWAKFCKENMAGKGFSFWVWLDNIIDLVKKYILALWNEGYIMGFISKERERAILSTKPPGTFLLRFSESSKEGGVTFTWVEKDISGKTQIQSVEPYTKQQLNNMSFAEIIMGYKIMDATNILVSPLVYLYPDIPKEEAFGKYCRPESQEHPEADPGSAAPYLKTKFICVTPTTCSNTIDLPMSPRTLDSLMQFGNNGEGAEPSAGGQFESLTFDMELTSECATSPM

B1: Hel2A-3-Pen (peptide)
peptide: Ac-DTRYLEQLHALYRQIKIWFPNRR[Nle]KWKK-NH2
SMILES: CCCC[C@H](NC(=O)[C@H](CCCNC(=N)N)NC(=O)[C@H](CCCNC(=N)N)NC(=O)[C@H](CC(N)=O)NC(=O)[C@@H]1CCCN1C(=O)[C@H](Cc1ccccc1)NC(=O)[C@H](Cc1c[nH]c2ccccc12)NC(=O)[C@@H](NC(=O)[C@H](CCCCN)NC(=O)[C@@H](NC(=O)[C@H](CCC(N)=O)NC(=O)[C@H](CCCNC(=N)N)NC(=O)[C@H](Cc1ccc(O)cc1)NC(=O)[C@H](CC(C)C)NC(=O)[C@H](C)NC(=O)[C@H](Cc1c[nH]cn1)NC(=O)[C@H](CC(C)C)NC(=O)[C@H](CCC(N)=O)NC(=O)[C@H](CCC(=O)O)NC(=O)[C@H](CC(C)C)NC(=O)[C@H](Cc1ccc(O)cc1)NC(=O)[C@H](CCCNC(=N)N)NC(=O)[C@@H](NC(=O)[C@H](CC(=O)O)NC(C)=O)[C@@H](C)O)[C@@H](C)CC)[C@@H](C)CC)C(=O)N[C@@H](CCCCN)C(=O)N[C@@H](Cc1c[nH]c2ccccc12)C(=O)N[C@@H](CCCCN)C(=O)N[C@@H](CCCCN)C(N)=O
Turning to B1, the “Activity, % of control (luciferase reporter, GAS or STAT3 element, MCF-7 cells)” value (“Activity, % of control” for short) is 89 % of control.

B2: Hel2I-Pen (peptide)
peptide: DTRYLEQLH[Dab]LYRQIKIWFPNRR[Nle]KWKK-NH2
modifications: N-terminus assumed
SMILES: CCCC[C@H](NC(=O)[C@H](CCCNC(=N)N)NC(=O)[C@H](CCCNC(=N)N)NC(=O)[C@H](CC(N)=O)NC(=O)[C@@H]1CCCN1C(=O)[C@H](Cc1ccccc1)NC(=O)[C@H](Cc1c[nH]c2ccccc12)NC(=O)[C@@H](NC(=O)[C@H](CCCCN)NC(=O)[C@@H](NC(=O)[C@H](CCC(N)=O)NC(=O)[C@H](CCCNC(=N)N)NC(=O)[C@H](Cc1ccc(O)cc1)NC(=O)[C@H](CC(C)C)NC(=O)[C@H](CCN)NC(=O)[C@H](Cc1c[nH]cn1)NC(=O)[C@H](CC(C)C)NC(=O)[C@H](CCC(N)=O)NC(=O)[C@H](CCC(=O)O)NC(=O)[C@H](CC(C)C)NC(=O)[C@H](Cc1ccc(O)cc1)NC(=O)[C@H](CCCNC(=N)N)NC(=O)[C@@H](NC(=O)[C@@H](N)CC(=O)O)[C@@H](C)O)[C@@H](C)CC)[C@@H](C)CC)C(=O)N[C@@H](CCCCN)C(=O)N[C@@H](Cc1c[nH]c2ccccc12)C(=O)N[C@@H](CCCCN)C(=O)N[C@@H](CCCCN)C(N)=O
On to B2, for which the “Activity, % of control” value was 53 % of control.

B3: Hel2A-2-Pen (peptide)
peptide: LDTRYLEQLHKLYRQIKIWFPNRR[Nle]KWKK-NH2
modifications: N-terminus assumed
SMILES: CCCC[C@H](NC(=O)[C@H](CCCNC(=N)N)NC(=O)[C@H](CCCNC(=N)N)NC(=O)[C@H](CC(N)=O)NC(=O)[C@@H]1CCCN1C(=O)[C@H](Cc1ccccc1)NC(=O)[C@H](Cc1c[nH]c2ccccc12)NC(=O)[C@@H](NC(=O)[C@H](CCCCN)NC(=O)[C@@H](NC(=O)[C@H](CCC(N)=O)NC(=O)[C@H](CCCNC(=N)N)NC(=O)[C@H](Cc1ccc(O)cc1)NC(=O)[C@H](CC(C)C)NC(=O)[C@H](CCCCN)NC(=O)[C@H](Cc1c[nH]cn1)NC(=O)[C@H](CC(C)C)NC(=O)[C@H](CCC(N)=O)NC(=O)[C@H](CCC(=O)O)NC(=O)[C@H](CC(C)C)NC(=O)[C@H](Cc1ccc(O)cc1)NC(=O)[C@H](CCCNC(=N)N)NC(=O)[C@@H](NC(=O)[C@H](CC(=O)O)NC(=O)[C@@H](N)CC(C)C)[C@@H](C)O)[C@@H](C)CC)[C@@H](C)CC)C(=O)N[C@@H](CCCCN)C(=O)N[C@@H](Cc1c[nH]c2ccccc12)C(=O)N[C@@H](CCCCN)C(=O)N[C@@H](CCCCN)C(N)=O
Take B3: the “Activity, % of control” value was 71 % of control.

B4: Hel2B-Pen (peptide)
peptide: LDTRYLEQLHKLYSRQIKIWFPNRR[Nle]KWKK-NH2
modifications: N-terminus assumed
SMILES: CCCC[C@H](NC(=O)[C@H](CCCNC(=N)N)NC(=O)[C@H](CCCNC(=N)N)NC(=O)[C@H](CC(N)=O)NC(=O)[C@@H]1CCCN1C(=O)[C@H](Cc1ccccc1)NC(=O)[C@H](Cc1c[nH]c2ccccc12)NC(=O)[C@@H](NC(=O)[C@H](CCCCN)NC(=O)[C@@H](NC(=O)[C@H](CCC(N)=O)NC(=O)[C@H](CCCNC(=N)N)NC(=O)[C@H](CO)NC(=O)[C@H](Cc1ccc(O)cc1)NC(=O)[C@H](CC(C)C)NC(=O)[C@H](CCCCN)NC(=O)[C@H](Cc1c[nH]cn1)NC(=O)[C@H](CC(C)C)NC(=O)[C@H](CCC(N)=O)NC(=O)[C@H](CCC(=O)O)NC(=O)[C@H](CC(C)C)NC(=O)[C@H](Cc1ccc(O)cc1)NC(=O)[C@H](CCCNC(=N)N)NC(=O)[C@@H](NC(=O)[C@H](CC(=O)O)NC(=O)[C@@H](N)CC(C)C)[C@@H](C)O)[C@@H](C)CC)[C@@H](C)CC)C(=O)N[C@@H](CCCCN)C(=O)N[C@@H](Cc1c[nH]c2ccccc12)C(=O)N[C@@H](CCCCN)C(=O)N[C@@H](CCCCN)C(N)=O
Turning to B4, the “Activity, % of control” value was 100 % of control.

B5: Hel2A-Pen (peptide)
peptide: DTRYLEQLHKLYSRQIKIWFPNRR[Nle]KWKK-NH2
modifications: N-terminus assumed
SMILES: CCCC[C@H](NC(=O)[C@H](CCCNC(=N)N)NC(=O)[C@H](CCCNC(=N)N)NC(=O)[C@H](CC(N)=O)NC(=O)[C@@H]1CCCN1C(=O)[C@H](Cc1ccccc1)NC(=O)[C@H](Cc1c[nH]c2ccccc12)NC(=O)[C@@H](NC(=O)[C@H](CCCCN)NC(=O)[C@@H](NC(=O)[C@H](CCC(N)=O)NC(=O)[C@H](CCCNC(=N)N)NC(=O)[C@H](CO)NC(=O)[C@H](Cc1ccc(O)cc1)NC(=O)[C@H](CC(C)C)NC(=O)[C@H](CCCCN)NC(=O)[C@H](Cc1c[nH]cn1)NC(=O)[C@H](CC(C)C)NC(=O)[C@H](CCC(N)=O)NC(=O)[C@H](CCC(=O)O)NC(=O)[C@H](CC(C)C)NC(=O)[C@H](Cc1ccc(O)cc1)NC(=O)[C@H](CCCNC(=N)N)NC(=O)[C@@H](NC(=O)[C@@H](N)CC(=O)O)[C@@H](C)O)[C@@H](C)CC)[C@@H](C)CC)C(=O)N[C@@H](CCCCN)C(=O)N[C@@H](Cc1c[nH]c2ccccc12)C(=O)N[C@@H](CCCCN)C(=O)N[C@@H](CCCCN)C(N)=O
For the molecule B5, the “Activity, % of control” value was 100 % of control.

B6: Hel2-Pen (peptide)
peptide: LDTRYLEQLHQLYSRQIKIWFPNRR[Nle]KWKK-NH2
modifications: N-terminus assumed
SMILES: CCCC[C@H](NC(=O)[C@H](CCCNC(=N)N)NC(=O)[C@H](CCCNC(=N)N)NC(=O)[C@H](CC(N)=O)NC(=O)[C@@H]1CCCN1C(=O)[C@H](Cc1ccccc1)NC(=O)[C@H](Cc1c[nH]c2ccccc12)NC(=O)[C@@H](NC(=O)[C@H](CCCCN)NC(=O)[C@@H](NC(=O)[C@H](CCC(N)=O)NC(=O)[C@H](CCCNC(=N)N)NC(=O)[C@H](CO)NC(=O)[C@H](Cc1ccc(O)cc1)NC(=O)[C@H](CC(C)C)NC(=O)[C@H](CCC(N)=O)NC(=O)[C@H](Cc1c[nH]cn1)NC(=O)[C@H](CC(C)C)NC(=O)[C@H](CCC(N)=O)NC(=O)[C@H](CCC(=O)O)NC(=O)[C@H](CC(C)C)NC(=O)[C@H](Cc1ccc(O)cc1)NC(=O)[C@H](CCCNC(=N)N)NC(=O)[C@@H](NC(=O)[C@H](CC(=O)O)NC(=O)[C@@H](N)CC(C)C)[C@@H](C)O)[C@@H](C)CC)[C@@H](C)CC)C(=O)N[C@@H](CCCCN)C(=O)N[C@@H](Cc1c[nH]c2ccccc12)C(=O)N[C@@H](CCCCN)C(=O)N[C@@H](CCCCN)C(N)=O
Regarding B6, the “Activity, % of control” value was 56 % of control.

B7: Hel2H-Pen (peptide)
peptide: LDTRYLEQLH[Dab]LYRQIKIWFPNRR[Nle]KWKK-NH2
modifications: N-terminus assumed
SMILES: CCCC[C@H](NC(=O)[C@H](CCCNC(=N)N)NC(=O)[C@H](CCCNC(=N)N)NC(=O)[C@H](CC(N)=O)NC(=O)[C@@H]1CCCN1C(=O)[C@H](Cc1ccccc1)NC(=O)[C@H](Cc1c[nH]c2ccccc12)NC(=O)[C@@H](NC(=O)[C@H](CCCCN)NC(=O)[C@@H](NC(=O)[C@H](CCC(N)=O)NC(=O)[C@H](CCCNC(=N)N)NC(=O)[C@H](Cc1ccc(O)cc1)NC(=O)[C@H](CC(C)C)NC(=O)[C@H](CCN)NC(=O)[C@H](Cc1c[nH]cn1)NC(=O)[C@H](CC(C)C)NC(=O)[C@H](CCC(N)=O)NC(=O)[C@H](CCC(=O)O)NC(=O)[C@H](CC(C)C)NC(=O)[C@H](Cc1ccc(O)cc1)NC(=O)[C@H](CCCNC(=N)N)NC(=O)[C@@H](NC(=O)[C@H](CC(=O)O)NC(=O)[C@@H](N)CC(C)C)[C@@H](C)O)[C@@H](C)CC)[C@@H](C)CC)C(=O)N[C@@H](CCCCN)C(=O)N[C@@H](Cc1c[nH]c2ccccc12)C(=O)N[C@@H](CCCCN)C(=O)N[C@@H](CCCCN)C(N)=O
In the case of B7, the “Activity, % of control” value is 43 % of control.
